Test results published in patent CN115710309A (INST PASTEUR SHANGHAI CAS, dated 2023).

Key:
Assay in all cases: cell-based or functional assay
[1] = target: SARS-CoV-2 S蛋白 (野生型假病毒) (SARS-CoV-2, UniProt P0DTC2 14-1273)
[2] = target: SARS-CoV-2活病毒nCoV-SH01株的S蛋白 (SARS-CoV-2, UniProt P0DTC2 14-1273)
[3] = target: SARS-CoV-2 S蛋白 (野生型假病毒) (SARS-CoV-2, UniProt P0DTC2 14-1273); remark: listed apart in the source

B1: 单抗8D3 (antibody, V domains shown)
VH: EVQLQQSGPELVKPGASVKISCKTSGYTFTEYTMYWVKQSHGKSLEWIGGINPNIGDTSYNQNFKGKATLTVDRSSSTAYMELRSLTSEDSAVYYCARDGYPYYYALDHWGQGTSVTVSS
VL: DIVMTQSQKFMSTSVGDRVSVTCKASQNVGTNVAWYQQKPGQSPKALIYSTSYRYSGVPDRFTGSGSGTDFTLTISNVQSEDLAEYFCQQYNSYPYTFGGGTKLEIKR
假病毒中和试验 半数抑制浓度(IC50) [1]: 0.007 mg/L
活病毒中和 IC50 [2]: 0.071 mg/L

B2: 单抗2G3 (antibody)
heavy: QVQLQQPGAELVKPGASVKMSCKASGYTFTTYTIHWLRQTPGQGLEWIGAIYPGIGDTSYNQSFKGKATLTADKSSSTAYMQLSSLTSEDSAVYYCARDGNYAPFTYWGQGTLVTVSAAKTTPPSVYPLAPGSAAQTNSMVTLGCLVKGYFPEPVTVTWNSGSLSSGVHTFPAVLQSDLYTLSSSVTVPSSTWPSETVTCNVAHPASSTKVDKKIVPRDCGCKPCICTVPEVSSVFIFPPKPKDVLTITLTPKVTCVVVDISKDDPEVQFSWFVDDVEVHTAQTQPREEQFNSTFRSVSELPIMHQDWLNGKEFKCRVNSAAFPAPIEKTISKTKGRPKAPQVYTIPPPKEQMAKDKVSLTCMITDFFPEDITVEWQWNGQPAENYKNTQPIMDTDGSYFVYSKLNVQKSNWEAGNTFTCSVLHEGLHNHHTEKSLSHSPGK
light: DIVMSQSPSSLAVSVGEKVTMSCKSSQSLLYSNNQKNYLAWYQQKPGQSPKLLIYWTSTRESGVPDRFTGSGSGTDFTLTINSVKAEDLAVYYCQQYYRYPLTVGAGTKLELKRADAAPTVSIFPPSSEQLTSGGASVVCFLNNFYPKDINVKWKIDGSERQNGVLNSWTDQDSKDSTYSMSSTLTLTKDEYERHNSYTCEATHKTSTSPIVKSFNRNEC
假病毒中和试验 半数抑制浓度(IC50) [1]: 0.007 mg/L
活病毒中和 IC50 [2]: 0.032 mg/L

B3: 单抗3A2 (antibody, V domains shown)
VH: QVTLKESGPGILQPSQTLSLTCSFSGFSLSTSGMGVSWIRQPSGKGLEWLAHIYWDDDKRYNPSLKSRLTISKDTSSSQVFLKITSVDTVDTATYYCARRGPLITTDGTFDVWGAGTTVTVSS
VL: DIVMTQSRKFMSTSVGDRVSITCKASQDVGTSVAWYQQKPGQSPKLLIYWASTRHTGVPDRFTGSGSGTDFTLTINSVQSEDLADYFCQQYSSYPYTFGGGTKLEMK
假病毒中和试验 半数抑制浓度(IC50) [3]: 0.049 mg/L
